Laboratory results reported in patent US20250152730A1, “ANTI-TM4SF1 ANTIBODY-DRUG CONJUGATES COMPRISING CLEAVABLE LINKERS AND METHODS OF USING SAME” (Angiex, Inc., priority 2022, published 2025).

B1: AGX-A07 variant comprising Fc region mutation N297C (antibody, V domains shown)
VH: QIQLVQSGPELKKPGETVKISCKASGYTFTNYGVKWVKQAPGKDLKWMGWINTYTGNPIYAADFKGRFAFSLETSASTAFLQINNLKNEDTATYFCVRFQYGDYRYFDVWGAGTTVTVSS
VL: QIILSQSPAILSASPGEKVTMTCRANSGISFINWYQQKPGSSPKPWIYGTANLASGVPARFGGSGSGTSYSLTISRVEAEDAATYYCQQWSSNPLTFGAGTKLELR
B2: A07-wt: AGX-A07 anti-TM4SF1 antibody without Fc region mutations (antibody, V domains shown)
VH: B1 VH
VL: B1 VL
B3: AGX-A07 anti-TM4SF1 antibody (without Fc region mutations) (antibody, V domains shown)
VH: B1 VH
VL: B1 VL
B4: A07-YTEC: AGX-A07 with N297C in combination with M252Y, S254T, and T256E (the “YTEC” variant) (antibody, V domains shown)
VH: B1 VH
VL: B1 VL
B5: AGX-A07 variant comprising Fc region mutations N297C, M252Y, S254T and T256E (antibody, V domains shown)
VH: B1 VH
VL: B1 VL
B6: A07C: AGX-A07 anti-TM4SF1 antibody with Fc region mutation N297C (the “C” variant) (antibody, V domains shown)
VH: B1 VH
VL: B1 VL

Experiments:
[1] = in vivo; cited from earlier work
[2] = metabolite of trastuzumab emtansine (Kadcyla); every 2 weeks; cited from earlier work
HUVEC (endothelial cell) = experiment: In vitro cell proliferation inhibition (killing) assay, HUVEC; type: cell-based, human; details: 5 days incubation
Method: Cells are incubated with antibody conjugate at various concentrations. The concentrations evaluated include a control, and five-fold dilution starting from 333.335 nM (333.335 nM, 66.667 nM, 13.334 nM, 2.667 nM, 0.533 nM (533.3360 pM), 106.6672 pM, 21.3334 pM, 4.2667 pM. Briefly, cells are seeded into 96-well plates a day before the antibody conjugates are added, whereupon cell viability is measured by PrestoBlue (ThermoFisher Scientific) through a plate reader (Varioskan™ LUX multimode microplate reader) five days after treatment with serial dilutions of the antibody conjugates. Cells are treated with media only or isotype matched control antibodies, as a negative control. The EC50 values are generated via GraphPad.
The effects of antibody drug-conjugates (drug to antibody ratio (DAR) varying from 1.8 to 4.2) containing a drug (maytansine) were assessed in cultured mouse (MS1) and human (HUVEC, A549, MiaPaCa2 and SKOV3) cells. Characteristics of the Exemplary Antibodies 1-5, each of which contains human IgG1 constant region with YTEC mutation, can be found in Table 3A. Cells were incubated for 5 days with the antibody drug conjugate before assessing cell viability on day 5.

[3] = biological target: T1, human TM4SF1 (transmembrane-4 L six family member-1) on HUVEC cells (UniProt P30408 1-202); experiment: flow cytometry cell binding; HUVEC cells
T1 chain: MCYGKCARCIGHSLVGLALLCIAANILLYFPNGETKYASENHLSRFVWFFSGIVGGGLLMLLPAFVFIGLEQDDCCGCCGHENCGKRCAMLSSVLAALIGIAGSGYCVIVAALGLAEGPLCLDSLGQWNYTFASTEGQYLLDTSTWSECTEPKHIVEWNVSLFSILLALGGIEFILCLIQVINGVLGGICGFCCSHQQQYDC

[4] = Hydrophobicity by hydrophobic interaction chromatography (HIC); type: physicochemical; parameters: unit not given here; details: for Hydrophobicity (HIC), Average: average of 3 runs
Method: The hydrophobicity of exemplary anti-TM4SF1 antibodies, and their Fc mutation containing variants were assessed in this study, using hydrophobic interaction chromatography. The tested antibodies were AGX-A07 (the “wt,” “C,” and “YTEC”); MS (the “wt,” “C,” and “YTEC”). An anti-Her2 antibody with an Fc mutation was used as a control. Both in case of AGX-A07 and the murine surrogate anti-TM4SF1 antibody, it was observed that the hydrophobicity increased with the “C” and “YTEC” mutations.

Row | Molecule | EC50 [3] [nM] | Hydrophobicity (HIC), Run 1 [4] | Hydrophobicity (HIC), Run 2 [4] | Hydrophobicity (HIC), Run 3 [4] | Hydrophobicity (HIC), Average [4] | further results
1 | COc1ccc(/C=C\c2cc(OC)c(OC)c(OC)c2)cc1OP(=O)(O)O [CA4P, Combretastatin] |  |  |  |  |  | Patients who experienced heart attacks while being treated [1]: seven
2 | COc1cc2cc(c1Cl)N(C)C(=O)CC(O)C1(C)OC1C(C)C1CC(O)(NC(=O)O1)C(OC)/C=C/C=C(\C)C2 (stereo not drawn) [Maytansinol, maytansinol] |  |  |  |  |  | Found in plasma [2]: 7%
3 | BrAc-Galactose-Sar-N-Me-Alanine-DM1 [Free LP] |  |  |  |  |  | EC50 (HUVEC (endothelial cell)): 906 nM
4 | B1 | 2.3 |  |  |  |  | 
5 | B2 |  | 5.547 | 5.523 | 5.568 | 5.55 | 
6 | B3 | 2.16 |  |  |  |  | 
7 | B4 |  | 5.781 | 5.77 | 5.888 | 5.81 | 
8 | B5 | 1.75 |  |  |  |  | 
9 | B6 |  | 5.614 | 5.591 | 5.606 | 5.60 | 
